Measured values: patent publication US20100093623A1, “COMPOSITIONS AND METHODS FOR […]-LIKE RECEPTOR ACTIVITY AND USES THEREOF” (Burnham Institute for Medical Research, priority 2008, published 2010)

Target: T1, (His)6-NLRP1 (NLR family, pyrin domain-containing 1), purified recombinant full-length protein from Sf21 cells (human), Q9C000
T1 chain: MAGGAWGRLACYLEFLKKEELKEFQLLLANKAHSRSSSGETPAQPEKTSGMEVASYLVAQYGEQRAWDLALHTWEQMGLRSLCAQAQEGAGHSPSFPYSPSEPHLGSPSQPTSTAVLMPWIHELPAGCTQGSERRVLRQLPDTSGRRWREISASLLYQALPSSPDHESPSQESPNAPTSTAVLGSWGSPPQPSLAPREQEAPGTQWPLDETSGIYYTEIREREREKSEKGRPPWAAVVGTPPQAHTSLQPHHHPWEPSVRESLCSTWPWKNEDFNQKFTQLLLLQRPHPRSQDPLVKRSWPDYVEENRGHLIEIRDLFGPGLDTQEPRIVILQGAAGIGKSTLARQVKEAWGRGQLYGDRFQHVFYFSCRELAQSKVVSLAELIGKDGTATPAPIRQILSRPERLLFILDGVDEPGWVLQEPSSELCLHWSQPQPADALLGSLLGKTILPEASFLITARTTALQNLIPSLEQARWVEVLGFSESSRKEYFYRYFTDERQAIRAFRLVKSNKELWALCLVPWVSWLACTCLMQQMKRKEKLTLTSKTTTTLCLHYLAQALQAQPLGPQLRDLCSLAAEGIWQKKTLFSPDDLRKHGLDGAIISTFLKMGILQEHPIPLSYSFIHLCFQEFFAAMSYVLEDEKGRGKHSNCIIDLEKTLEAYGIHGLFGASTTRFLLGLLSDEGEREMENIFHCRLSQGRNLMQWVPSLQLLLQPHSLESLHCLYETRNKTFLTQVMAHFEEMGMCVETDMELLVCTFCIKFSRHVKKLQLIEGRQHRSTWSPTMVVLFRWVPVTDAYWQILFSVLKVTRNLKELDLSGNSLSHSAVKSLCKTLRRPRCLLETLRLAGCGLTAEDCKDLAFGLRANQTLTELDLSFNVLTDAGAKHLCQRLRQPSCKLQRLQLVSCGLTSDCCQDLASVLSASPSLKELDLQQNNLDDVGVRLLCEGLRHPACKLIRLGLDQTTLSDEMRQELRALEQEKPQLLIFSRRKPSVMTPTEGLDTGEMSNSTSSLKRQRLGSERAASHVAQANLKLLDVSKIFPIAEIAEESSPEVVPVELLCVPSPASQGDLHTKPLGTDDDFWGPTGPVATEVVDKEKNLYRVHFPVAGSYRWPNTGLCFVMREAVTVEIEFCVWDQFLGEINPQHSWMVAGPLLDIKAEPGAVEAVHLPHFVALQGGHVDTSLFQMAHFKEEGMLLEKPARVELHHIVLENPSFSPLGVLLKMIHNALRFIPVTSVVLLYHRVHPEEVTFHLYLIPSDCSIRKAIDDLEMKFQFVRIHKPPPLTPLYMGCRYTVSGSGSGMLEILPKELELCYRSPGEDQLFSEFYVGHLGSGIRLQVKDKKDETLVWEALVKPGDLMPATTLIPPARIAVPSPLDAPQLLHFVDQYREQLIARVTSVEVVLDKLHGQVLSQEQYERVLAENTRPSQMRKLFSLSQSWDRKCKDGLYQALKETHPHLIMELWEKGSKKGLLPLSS
Experiment: cell-based or functional assay

## PLQTPAAPGAAAGPALSPVP (modifications not checked) [Bcl-2 Loop peptide 71-90 (synthetic 20'mer)]
  IC50 (concentration to inhibit NLRP1-induced Caspase-1 activity by 50%): 9.92 nM
